From publication PMC9482650, “Quantitative fragmentomics allow affinity mapping of interactomes” (Nature Communications, 2022)

T1: APBA3_1, O96018
T1 sequence (O96018 389-490, limits assumed, looked up): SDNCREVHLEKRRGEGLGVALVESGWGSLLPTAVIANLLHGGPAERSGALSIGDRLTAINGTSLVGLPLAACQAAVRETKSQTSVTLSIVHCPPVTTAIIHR

T2: ARHGEF11, O15085
T2 sequence (O15085 42-136, limits assumed, looked up): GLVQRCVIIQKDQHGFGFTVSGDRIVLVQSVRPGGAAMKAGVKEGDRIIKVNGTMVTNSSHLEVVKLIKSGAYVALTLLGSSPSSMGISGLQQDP

T3: GRIP1_4, Q9Y3R0
T3 sequence (Q9Y3R0 467-571, limits assumed, looked up): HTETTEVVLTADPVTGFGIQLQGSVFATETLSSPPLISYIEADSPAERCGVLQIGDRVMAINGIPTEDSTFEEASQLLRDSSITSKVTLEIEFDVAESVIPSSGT

T4: HTRA4, P83105
T4 sequence (P83105 378-476, limits assumed, looked up): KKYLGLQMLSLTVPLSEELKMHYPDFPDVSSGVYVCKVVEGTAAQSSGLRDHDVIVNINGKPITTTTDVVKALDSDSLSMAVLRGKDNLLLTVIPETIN

T5: LIN7C, Q9NUP9
T5 sequence (Q9NUP9 88-185, limits assumed, looked up): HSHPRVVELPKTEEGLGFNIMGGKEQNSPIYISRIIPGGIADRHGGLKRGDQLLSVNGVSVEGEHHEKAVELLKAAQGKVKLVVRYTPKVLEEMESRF

T6: LNX2_3, Q8N448
T6 sequence (Q8N448 463-564, limits assumed, looked up): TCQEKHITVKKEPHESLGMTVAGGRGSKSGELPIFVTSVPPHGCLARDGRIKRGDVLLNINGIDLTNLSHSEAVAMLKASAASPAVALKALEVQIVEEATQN

T7: NHERF3_4, Q5T2W1
T7 sequence (Q5T2W1 373-468, limits assumed, looked up): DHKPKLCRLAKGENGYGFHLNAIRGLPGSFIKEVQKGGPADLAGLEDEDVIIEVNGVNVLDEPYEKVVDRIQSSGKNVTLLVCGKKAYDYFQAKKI

T8: PDZD2_2, O15018
T8 sequence (O15018 329-429, limits assumed, looked up): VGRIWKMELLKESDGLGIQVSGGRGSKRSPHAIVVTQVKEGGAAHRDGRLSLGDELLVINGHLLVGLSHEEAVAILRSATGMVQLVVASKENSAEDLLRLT

T9: PDZRN3_1, Q9UPQ7
T9 sequence (Q9UPQ7 244-349, limits assumed, looked up): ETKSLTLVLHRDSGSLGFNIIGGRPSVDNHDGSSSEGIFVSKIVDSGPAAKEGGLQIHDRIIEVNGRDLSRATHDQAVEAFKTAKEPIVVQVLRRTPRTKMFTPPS

T10: SNTB1, Q13884
T10 sequence (Q13884 107-205, limits assumed, looked up): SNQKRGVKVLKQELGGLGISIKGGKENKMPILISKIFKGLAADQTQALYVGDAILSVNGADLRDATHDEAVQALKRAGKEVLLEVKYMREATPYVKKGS

T11: SNTG2, Q9NY99
T11 sequence (Q9NY99 68-166, limits assumed, looked up): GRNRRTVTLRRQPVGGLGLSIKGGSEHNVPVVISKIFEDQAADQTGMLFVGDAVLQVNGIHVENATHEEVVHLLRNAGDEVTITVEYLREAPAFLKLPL

T12: TIAM2, Q8IVF5
T12 sequence (Q8IVF5 885-986, limits assumed, looked up): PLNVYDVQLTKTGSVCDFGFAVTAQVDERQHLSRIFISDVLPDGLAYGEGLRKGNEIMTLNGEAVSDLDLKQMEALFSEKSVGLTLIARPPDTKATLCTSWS

B1: PRLHR, P49683 (peptide)
chain: GQNMTVSVVI
B2: GUCY1A2, P33402 (peptide)
chain: GTMFLRETSL

Each binder was assayed against AHNAK1, Q09666 (assay: holdup assay). Details: plain residues with an end cap or a label only (N-terminal biotin on a linker: ado-ado).
Set-up: key: below the threshold = too weak to quantify, mostly under pKd 3.1 to 4

AHNAK1, Q09666, sequence (Q09666 4-100): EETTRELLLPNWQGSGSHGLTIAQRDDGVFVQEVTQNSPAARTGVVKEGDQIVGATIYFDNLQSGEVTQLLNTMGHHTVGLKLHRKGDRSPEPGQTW

**Q.** Which pKd does the source give for B1 here?
**A.** below the threshold

**Q.** With B2 as the binder, how does the pKd read?
**A.** below the threshold

These binders were tested against T1, APBA3_1, O96018 (assay: holdup assay). Details: plain residues with an end cap or a label only (N-terminal biotin on a linker: ado-ado).
Set-up: key: below the threshold = too weak to quantify, mostly under pKd 3.1 to 4

**Q.** Which pKd does the source give for B1 here?
**A.** below the threshold

**Q.** How did the pKd turn out when B2 was run?
**A.** below the threshold

These binders were tested against T2, ARHGEF11, O15085 (assay: holdup assay). Details: plain residues with an end cap or a label only (N-terminal biotin on a linker: ado-ado).
Set-up: key: below the threshold = too weak to quantify, mostly under pKd 3.1 to 4

**Q.** Which pKd does the source give for B1 here?
**A.** 4.94

**Q.** B2 was tested. Which pKd did it give?
**A.** 4.52

The binders below were run against DLG1_3, Q12959 (assay: holdup assay). Details: plain residues with an end cap or a label only (N-terminal biotin on a linker: ado-ado).
Set-up: key: below the threshold = too weak to quantify, mostly under pKd 3.1 to 4

DLG1_3, Q12959, sequence (Q12959 457-571): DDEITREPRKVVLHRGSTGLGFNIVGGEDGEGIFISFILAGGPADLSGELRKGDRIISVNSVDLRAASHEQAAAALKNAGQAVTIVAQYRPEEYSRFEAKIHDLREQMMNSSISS

**Q.** Which pKd does the source give for B1 here?
**A.** below the threshold

**Q.** With B2 as the binder, how does the pKd read?
**A.** 5.09

The binders below were run against DLG2_2, Q15700 (assay: holdup assay). Details: plain residues with an end cap or a label only (N-terminal biotin on a linker: ado-ado).
Set-up: key: below the threshold = too weak to quantify, mostly under pKd 3.1 to 4

DLG2_2, Q15700, sequence (Q15700 189-283): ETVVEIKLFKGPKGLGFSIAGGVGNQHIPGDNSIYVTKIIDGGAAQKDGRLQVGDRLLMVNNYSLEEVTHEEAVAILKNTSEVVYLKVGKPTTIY

**Q.** Which pKd does the source give for B1 here?
**A.** below the threshold

**Q.** How did the pKd turn out when B2 was run?
**A.** 4.23

These binders were tested against FRMPD2_2, Q68DX3 (assay: holdup assay). Details: plain residues with an end cap or a label only (N-terminal biotin on a linker: ado-ado).
Set-up: key: below the threshold = too weak to quantify, mostly under pKd 3.1 to 4

FRMPD2_2, Q68DX3, sequence (Q68DX3 944-1038): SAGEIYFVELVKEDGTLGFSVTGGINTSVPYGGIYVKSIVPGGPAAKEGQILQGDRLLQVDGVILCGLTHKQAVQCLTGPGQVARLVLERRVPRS

**Q.** For B1, which pKd is on record?
**A.** below the threshold

**Q.** Which pKd does the source give for B2 here?
**A.** below the threshold

The binders below were run against T3, GRIP1_4, Q9Y3R0 (assay: holdup assay). Details: plain residues with an end cap or a label only (N-terminal biotin on a linker: ado-ado).
Set-up: key: below the threshold = too weak to quantify, mostly under pKd 3.1 to 4

**Q.** For B1, which pKd is on record?
**A.** below the threshold

**Q.** With B2 as the binder, how does the pKd read?
**A.** below the threshold

These binders were tested against T4, HTRA4, P83105 (assay: holdup assay). Details: plain residues with an end cap or a label only (N-terminal biotin on a linker: ado-ado).
Set-up: key: below the threshold = too weak to quantify, mostly under pKd 3.1 to 4

**Q.** Which pKd does the source give for B1 here?
**A.** 4.15

**Q.** Which pKd does the source give for B2 here?
**A.** 3.85

What follows are binders tested against IL16_4, Q14005 (assay: holdup assay). Details: plain residues with an end cap or a label only (N-terminal biotin on a linker: ado-ado).
Set-up: key: below the threshold = too weak to quantify, mostly under pKd 3.1 to 4

IL16_4, Q14005, sequence (Q14005 1229-1329): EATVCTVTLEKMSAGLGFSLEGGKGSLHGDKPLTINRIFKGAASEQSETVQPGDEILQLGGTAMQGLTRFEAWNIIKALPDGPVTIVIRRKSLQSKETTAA

**Q.** For B1, which pKd is on record?
**A.** 3.62

**Q.** Which pKd does the source give for B2 here?
**A.** 3.51

These binders were tested against Inadl_3, Q8NI35 (assay: holdup assay). Details: plain residues with an end cap or a label only (N-terminal biotin on a linker: ado-ado).
Set-up: key: below the threshold = too weak to quantify, mostly under pKd 3.1 to 4

Inadl_3, Q8NI35, sequence (Q8NI35 359-469): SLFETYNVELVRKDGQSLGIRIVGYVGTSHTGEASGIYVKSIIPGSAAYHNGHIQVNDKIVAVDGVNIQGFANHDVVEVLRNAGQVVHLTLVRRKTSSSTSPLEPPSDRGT

**Q.** For B1, which pKd is on record?
**A.** 4.52

**Q.** B2 was tested. Which pKd did it give?
**A.** below the threshold

The binders below were run against Inadl_6, Q8NI35 (assay: holdup assay). Details: plain residues with an end cap or a label only (N-terminal biotin on a linker: ado-ado).
Set-up: key: below the threshold = too weak to quantify, mostly under pKd 3.1 to 4

Inadl_6, Q8NI35, sequence (Q8NI35 1058-1167): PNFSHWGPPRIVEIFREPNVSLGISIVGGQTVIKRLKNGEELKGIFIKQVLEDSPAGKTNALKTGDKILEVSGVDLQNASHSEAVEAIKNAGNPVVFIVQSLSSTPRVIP

**Q.** Which pKd does the source give for B1 here?
**A.** below the threshold

**Q.** How did the pKd turn out when B2 was run?
**A.** 4.84

What follows are binders tested against LAP2, Q96RT1 (assay: holdup assay). Details: plain residues with an end cap or a label only (N-terminal biotin on a linker: ado-ado).
Set-up: key: below the threshold = too weak to quantify, mostly under pKd 3.1 to 4

LAP2, Q96RT1, sequence (Q96RT1 other isoform, or with tags, fused parts or gaps): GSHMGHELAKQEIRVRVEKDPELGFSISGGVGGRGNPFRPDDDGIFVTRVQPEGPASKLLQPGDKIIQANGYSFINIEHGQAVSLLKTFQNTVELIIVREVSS

**Q.** With B1 as the binder, how does the pKd read?
**A.** below the threshold

**Q.** How did the pKd turn out when B2 was run?
**A.** 3.85

What follows are binders tested against T5, LIN7C, Q9NUP9 (assay: holdup assay). Details: plain residues with an end cap or a label only (N-terminal biotin on a linker: ado-ado).
Set-up: key: below the threshold = too weak to quantify, mostly under pKd 3.1 to 4

**Q.** For B1, which pKd is on record?
**A.** below the threshold

**Q.** Which pKd does the source give for B2 here?
**A.** 4.83

These binders were tested against LNX1_2, Q8TBB1 (assay: holdup assay). Details: plain residues with an end cap or a label only (N-terminal biotin on a linker: ado-ado).
Set-up: key: below the threshold = too weak to quantify, mostly under pKd 3.1 to 4

LNX1_2, Q8TBB1, sequence (Q8TBB1 371-470): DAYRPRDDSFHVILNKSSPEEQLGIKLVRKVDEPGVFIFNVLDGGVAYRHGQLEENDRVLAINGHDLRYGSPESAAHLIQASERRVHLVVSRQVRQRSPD

**Q.** B1 was tested. Which pKd did it give?
**A.** 3.54

**Q.** With B2 as the binder, how does the pKd read?
**A.** below the threshold

These binders were tested against LNX1_3, Q8TBB1 (assay: holdup assay). Details: plain residues with an end cap or a label only (N-terminal biotin on a linker: ado-ado).
Set-up: key: below the threshold = too weak to quantify, mostly under pKd 3.1 to 4

LNX1_3, Q8TBB1, sequence (Q8TBB1 500-596): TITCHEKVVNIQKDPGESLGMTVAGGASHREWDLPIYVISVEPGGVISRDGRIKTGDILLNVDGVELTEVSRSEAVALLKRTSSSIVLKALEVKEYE

**Q.** How did the pKd turn out when B1 was run?
**A.** below the threshold

**Q.** With B2 as the binder, how does the pKd read?
**A.** below the threshold

Each binder was assayed against T6, LNX2_3, Q8N448 (assay: holdup assay). Details: plain residues with an end cap or a label only (N-terminal biotin on a linker: ado-ado).
Set-up: key: below the threshold = too weak to quantify, mostly under pKd 3.1 to 4

**Q.** With B1 as the binder, how does the pKd read?
**A.** 3.61

**Q.** For B2, which pKd is on record?
**A.** below the threshold

Each binder was assayed against MAGI2_4, Q86UL8 (assay: holdup assay). Details: plain residues with an end cap or a label only (N-terminal biotin on a linker: ado-ado).
Set-up: key: below the threshold = too weak to quantify, mostly under pKd 3.1 to 4

MAGI2_4, Q86UL8, sequence (Q86UL8 772-865): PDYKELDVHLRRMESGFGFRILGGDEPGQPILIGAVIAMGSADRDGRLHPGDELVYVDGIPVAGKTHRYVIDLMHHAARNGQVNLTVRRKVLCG

**Q.** With B1 as the binder, how does the pKd read?
**A.** below the threshold

**Q.** Which pKd does the source give for B2 here?
**A.** below the threshold

Each binder was assayed against T7, NHERF3_4, Q5T2W1 (assay: holdup assay). Details: plain residues with an end cap or a label only (N-terminal biotin on a linker: ado-ado).
Set-up: key: below the threshold = too weak to quantify, mostly under pKd 3.1 to 4

**Q.** How did the pKd turn out when B1 was run?
**A.** 3.73

**Q.** With B2 as the binder, how does the pKd read?
**A.** 4.38

Each binder was assayed against T8, PDZD2_2, O15018 (assay: holdup assay). Details: plain residues with an end cap or a label only (N-terminal biotin on a linker: ado-ado).
Set-up: key: below the threshold = too weak to quantify, mostly under pKd 3.1 to 4

**Q.** B1 was tested. Which pKd did it give?
**A.** below the threshold

**Q.** B2 was tested. Which pKd did it give?
**A.** below the threshold

These binders were tested against T9, PDZRN3_1, Q9UPQ7 (assay: holdup assay). Details: plain residues with an end cap or a label only (N-terminal biotin on a linker: ado-ado).
Set-up: key: below the threshold = too weak to quantify, mostly under pKd 3.1 to 4

**Q.** For B1, which pKd is on record?
**A.** below the threshold

**Q.** With B2 as the binder, how does the pKd read?
**A.** 6.34

These binders were tested against SCRIB_2, Q14160 (assay: holdup assay). Details: plain residues with an end cap or a label only (N-terminal biotin on a linker: ado-ado).
Set-up: key: below the threshold = too weak to quantify, mostly under pKd 3.1 to 4

SCRIB_2, Q14160, sequence (Q14160 857-960): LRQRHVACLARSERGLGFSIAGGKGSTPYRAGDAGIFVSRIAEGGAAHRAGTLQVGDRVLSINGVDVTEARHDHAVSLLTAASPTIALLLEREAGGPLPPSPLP

**Q.** B1 was tested. Which pKd did it give?
**A.** below the threshold

**Q.** Which pKd does the source give for B2 here?
**A.** 5.15

The binders below were run against T10, SNTB1, Q13884 (assay: holdup assay). Details: plain residues with an end cap or a label only (N-terminal biotin on a linker: ado-ado).
Set-up: key: below the threshold = too weak to quantify, mostly under pKd 3.1 to 4

**Q.** Which pKd does the source give for B1 here?
**A.** 4.15

**Q.** How did the pKd turn out when B2 was run?
**A.** 5.39

The binders below were run against T11, SNTG2, Q9NY99 (assay: holdup assay). Details: plain residues with an end cap or a label only (N-terminal biotin on a linker: ado-ado).
Set-up: key: below the threshold = too weak to quantify, mostly under pKd 3.1 to 4

**Q.** How did the pKd turn out when B1 was run?
**A.** below the threshold

**Q.** B2 was tested. Which pKd did it give?
**A.** 5.27

Each binder was assayed against SNX27, Q96L92 (assay: holdup assay). Details: plain residues with an end cap or a label only (N-terminal biotin on a linker: ado-ado).
Set-up: key: below the threshold = too weak to quantify, mostly under pKd 3.1 to 4

**Q.** Which pKd does the source give for B1 here?
**A.** 4.34

**Q.** B2 was tested. Which pKd did it give?
**A.** 5.72

What follows are binders tested against T12, TIAM2, Q8IVF5 (assay: holdup assay). Details: plain residues with an end cap or a label only (N-terminal biotin on a linker: ado-ado).
Set-up: key: below the threshold = too weak to quantify, mostly under pKd 3.1 to 4

**Q.** How did the pKd turn out when B1 was run?
**A.** 4.2

**Q.** With B2 as the binder, how does the pKd read?
**A.** 3.66

These binders were tested against TJP1_3, Q07157 (assay: holdup assay). Details: plain residues with an end cap or a label only (N-terminal biotin on a linker: ado-ado).
Set-up: key: below the threshold = too weak to quantify, mostly under pKd 3.1 to 4

TJP1_3, Q07157, sequence (Q07157 416-512): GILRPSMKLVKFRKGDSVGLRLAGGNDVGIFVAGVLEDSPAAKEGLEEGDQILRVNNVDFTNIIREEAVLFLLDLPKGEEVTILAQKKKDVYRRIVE

**Q.** For B1, which pKd is on record?
**A.** below the threshold

**Q.** With B2 as the binder, how does the pKd read?
**A.** below the threshold
